Data from US20240026407A1, “MODIFICATION OF SAPONINS” (GLAXOSMITHKLINE BIOLOGICALS SA, priority 2020, published 2024).

B1: 1020 (protein, listed as Rhodonellum psychrophilum)
chain: MKSLSKILTTVTLLLAVFACEKKPAEIVLFSMMDGVEGLSGKTEYLASPYVTAGDRVYMVGHQDGSFPDLGWHVEGEMGGIWNHPIKLMDGFTNAIEIEGNRFCLDNASAFINYPFANKHEFKNSVPGLEVERFQFVPDGKQGLVIEYLFKNVDKSKKSFVFEFDGHTDLMPVWLGDRAGMIDHVDNLVFDDQRQAWRGKDEGNEWYVLFGANQTASHSQGDSSLCNYFPQGKGKSAKLSYEMELSANGEGSLKFFIAGSYSGLDDVQKTFDLIKTHPETFLKDKRTNYDRIASLSKITIPDKELEKTFEWVKYNTEWLVRDIPEVGRGLGAGMPDYPWWFGVDNEYTLKGAIATGRKDLVYATVDLIHKLSVQENDNGKIVHEVSTNGVVFNPGNINETPQFASLIWYVYQWTGDKAFLEKYYPTIKKGLVWLMEENDKDGNLFPDGYGMMEIHGLESEMIDVAVYTQKAFADAAQMALLMAEPEVARSYQQTADLMKAKINTDFWVESANSYADFIGTAAETFPLVDAAIIRADTLGKPWAVEELKLLRKKLSTYPRNKKQGFVLFHNWVVNTPMEMGIADPEKAIKALDKGSKFVNPFGVFVTGIDRDEASQSEDGSFTGSKVFSYTGAVMTLPTGVQAISENNYGRPDQALAYLQMMVKSFGFALPGSIYEVSPDYGMMAQAWNLYSFGVPIVTQFFGIQPDAGNKVIHISTQMPSDWDSAKIEKVLIGDNVLTLSFLRVEGEIQLQINQTKGDWQIDFVFPTGKYNVWKVGGKEVEKTRVGNQEVFRTSGTSISASFK
B2: 1004 (protein)
chain: METQVIKPIAVGDLQITRFTIEHFPGDALGIPTATPRMNWTYSRAVPDGSQILLKISRRVPGSPAKEECTYLPPEDNVLVPWQFTPLASREEVFATVQLVSAAHKPLSDPSATLHFEAGLMQEYEHVADFVGPSWAEPETDHRHLPLIRTEIAIKAKPKRARLYLSALGLVEAEINGVKIGNDALIPGWTNYEQRVQCWTYDVTGELNEGANAMGFWLGDGWYRGRLGFDGGYVNYYGDRLGVFAQLEVEYEDGGIEHVYSNAWDRQWKASLGPIVCSDLCEGERYDARLEQPGWSEPGFDDSSWKPVAEIFYDPAKIENPDTSPVRAQEINEPVSITRTGDTPDGRGIWLVDFGQNCTQRIHLHVKGLEAGQSVELHHVEVLEPNGEIATRTLRRGQQHDIYTSNGTDAWWEPRFAMHGFRYAQIEGVAGELTAADIECHVYHSVMDRAGELETSNPLLNRLHANALWSMRSNFVSVPQDCPQRDERMGWTGDICLFAPTAAYLYDVYGFLKSWLKDVRADQVKWGTVPFYVPFIPLGGWAHPQAISTWGDSAVEVPWVLYMESGDPQILADSYDLSRDWIDEVAGYLSPDGVWDRRPDYVLGQLGDWLDPTAPPDDPTQAMTEKELVATAFFARSCAQAEQIARILGNNEDAVRFGDLRRHVTSGFLARFTNLDGTMTSDTQCAYALAIAFGLLDGEPVRRVKAGNRLAKLVRESGGKVSTGFAGTPFVLPALTMTGHNEEAYGLLLSEECPSWLYQVKMGATTTWERWDSMRPDGSLNPGGMTSFNHYALGSVAEWMHAHIGGLEAIEAGWKRFRVAPVIGGGLDHASTSHVTPYGKASVAWKTSAEGVELDVTVPIGATAVVELPDHEPTELAGGTHHLVVAL
modifications: Bifidobacterium moukalabense
B3: 1012 (protein)
chain: MKSRLKQQIFAISLLACTAISPANALQTHLLREQFQNPSDEAKPWTFWYWMFGAVSKEGITADLEAMKRAGLGGTYLMPIKGIKEGPQYNGKAQQLTPEWWEMVRFSMEEADRLGLKLGMHICDGFALAGGPWMTPKESMQKIVWSDTIVDGGKIKGLHLPQPEAYEGFYEDISLFALPVKEEAADVMPAQITCANIATGNHIDIKKTVNMDDAGVIRSSYPCYIQYEYEQPFTCRNIEIILSGNNYQAHRLKVMASDDGVNYRLVKQLVPARQGWQNTDENSTHAIPATTARYFRFYWTPEGSEPGSEDMDAAKWKPNLKIKELRLHREARLDQWEGKAGLVWRVASSTKKEEIGEQDCYALSQIINLTDPFKNSPSDNFKERTLTATLPKGKWKLLRMGHTATGHTNATAGGGKGLECDKFNPKAVRKQFDNWFAQAFVKTNPDVARRVLKYMHVDSWECGSQNWSDTFAAEFRKRRGYDLMPYLPLLAGIPMESAERSEKILRDVRTTIGELVVDVFYQVLADCAKEYDCQFSAECVAPTMVSDGLLHYQKVDLPMGEFWLNSPTHDKPNDMLDAISGAHIYGKNIIQAEGFTEVRGTWNEHPGILKALLDRNYALGINRLFFHVYVHNPWLDRKPGMTLDGIGLFFQRDQTWWNKGAKAFCEYITRCQSLLQYGHPVADIAVFTGEEMPRRSILPERLVPSLPGIFGAERVESERIRLANEGQPLRVRPVGVTHSANMSDPEKWVNPLRGYAYDSFNKDALLRLAKAENGRMTLPGGASYKVLVLPLPRPMNPDPAALSPEVKQKINELKEAGILIPSLPYKEDDFSSYGLERDLIVPENIAWTHRQGEQGDIYFIANQLEETRTFTASMRIDGRKPECWNPVTGEINADIPYEQKSHRTEITLTLAPNESVFIVYPAEEDDKETSEKERKEKKDSVKEASETGLEATEYTVTFTANGKTIQRQELFDWSKEEDEQIRYYSGTAVYKTTFRWKSKVKEDQQVYLNLGKVCDLATVRVNGIDCGTIWTAPYRADITAALKKGVNELEIEVTNTWANALKGADEGKAPFDGIWTNAKYRRAENTLLPAGLLGPLNFDVANKNK
modifications: Bacteroides thetaiotaomicron
B4: 1065 (protein, listed as Chitinophaga pinensis)
chain: MRIILTAAFLLITSIVSAQYNAWKGSWITNTEDTTATKAPYLRKTFTLDKKVVSATAYVAGVGYHIVFVNGKPVTDAVLEQAYTRYDKRLLYKVYDVTALLSRKGTQSIAAELGNGWYNIQSHAVWGFQNAPWRKTPRLLLDLVIRYDDGTTETIATDNSWKCATGPSQFNCLYSGEIYDARQEVAGWNQTAFNDAGWKQVLLTSSPGGALHEQIMPSIKVIRRIKPVSMKNLGNGKYLFDMGQNFAGVATLNVKGQAGTKVTMYYGEVLKNGELDMVHNTEHMRSMPGELRFQTDVYFLKGGAREVFTPRFVYHGFQYVQIETDQPLELNVHSLEGLFYSTAFEEAGHFTSSDPMINKLYEAARQSYRSNFLSIPTDCPQREKNGWTADAHISTEIGLWNYQTTEGYRKWLHDVRDAQLPSGAMPGIAPSNGWGYDRPGNEEFTFGPAWGSALGFVTWYMYLYHNDTALVREHYDAFKKYTDAVAKGAEGYLFKHGLDDWMSLVKTPMPLTSTAYFYTDAELVAKMARVLGNKADEQTYSRLADSIRAAFNRTYFDANTGVYKDSTMTALSAAVFHGLASPEAAAKTAAQLSSKVQRSNYHADFGVMGTKYVLPTLSDYGYADVAFRMLTDTGYAGWAHWIANGATTLFEDWPGELSHNHIFFGDYCAWYYKTLAGIRPDEAAPGFQHFYIQPAFVKALNFVKADYASSAGMIKVEWKRKGNSIKLSVEIPSRATVRLPAGMTDDKNATRITLNGQQFDQVVLTPGKYTFNLK

What was measured:
Format in all cases: biochemical, Quillaja saponaria
[1] = Experiment 6-1: screening of rhamnosidases for derhamnosylation of saponins in treated bark extract (2%), QS-17 2296 to QS-18 2150 (PAR %); conditions: TBE 2%, pH 7.5, 30 degC, 18 h; TIC peak area ratio percent of rhamnosylated starting saponin to derhamnosylated product, LCMS/MS; negative controls 4.876, 5.225
[2] = Experiment 6-1: screening of rhamnosidases for derhamnosylation of saponins in treated bark extract (2%), desglucosyl-QS-17 2134 to QS-21 1988 (PAR %); conditions: TBE 2%, pH 7.5, 30 degC, 18 h; TIC peak area ratio percent, LCMS/MS; negative controls 2.719, 2.158
[3] = Experiment 6-1: screening of rhamnosidases for derhamnosylation of saponins in treated bark extract (2%), QS-17 2310 to QS-18 2164 (PAR %); conditions: TBE 2%, pH 7.5, 30 degC, 18 h; TIC peak area ratio percent, LCMS/MS; negative controls 3.061, 2.429
[4] = Experiment 6-1: specificity of rhamnosidases towards other rhamnose residues (C3 saccharide rhamnose, C28 saccharide rhamnose); conditions: TBE 2%, pH 7.5, 30 degC, 18 h; LCMS/MS; negative controls 0.18, 0.17

Molecule | QS-17 (PAR %) [1] [%] | Peak75 (PAR %) [2] [%] | Peak57 (PAR %) [3] [%] | ratio PP/QS-21 [4]
B1 | 5.058 | 2.360 | 3.288 | 0.17
B2 | 5.076 | 2.553 | 2.942 | 0.16
B3 | 5.068 | 2.610 | 3.249 | 0.16
B4 | 5.015 | 2.458 | 3.194 | 0.17
